In paper PMC7337898:

System: HrrA (phosphorylated response regulator) (Corynebacterium glutamicum ATCC 13032)
Experiment: EMSA
Conditions: 20 mM Tris-HCl pH 7.5, 50 mM KCl, 10 mM MgCl2, 5% glycerol, 0.5 mM EDTA, 0.005% Triton X-100, 20 min, room temperature, 10 nM DNA with 5-1000 nM HrrA …

PcydA (Pcyd)
Kd (apparent Kd): 350 nM

PsigC/katA
Kd (apparent Kd (text misprints 270 μM)): 271 nM

PhmuO
Kd (apparent Kd): 196 nM

PctaE
Kd (apparent Kd): 125 nM
